Where no end group is shown, it is not given here. [ ]: non-standard residue; d: D form. pT = C[C@@H](OP(=O)(O)O)[C@H](N)C(=O)O; pS = N[C@@H](COP(=O)(O)O)C(=O)O
T1: 14-3-3θ (human, UniProt P27348 1-245)
T1 construct: 14-3-3θ, human, UniProt P27348; also called 14-3-3 theta; 14-3-3τ
T1 sequence: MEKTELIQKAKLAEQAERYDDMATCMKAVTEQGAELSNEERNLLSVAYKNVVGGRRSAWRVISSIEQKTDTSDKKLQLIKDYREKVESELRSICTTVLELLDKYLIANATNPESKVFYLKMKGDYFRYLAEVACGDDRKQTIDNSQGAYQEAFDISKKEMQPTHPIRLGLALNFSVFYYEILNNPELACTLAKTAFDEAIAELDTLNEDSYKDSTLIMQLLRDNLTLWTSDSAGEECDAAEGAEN

T2: IRSp53-FLAG (wild type), natively phosphorylated (human (from the printed UniProt entry), UniProt Q9UQB8-4 1-521, phosphorylated in HEK293T cells at S325, T340, T360, S366 and a residue within 452SSST455, most likely S454 (mass spectrometry of the purified 14-3-3-binding-competent fraction))
T2 construct: also called pIRSp53; WT IRSp53-FLAG; source: HEK293T, transfected, in lysate; not shown: FLAG, C-terminal, kept
T2 sequence (looked up): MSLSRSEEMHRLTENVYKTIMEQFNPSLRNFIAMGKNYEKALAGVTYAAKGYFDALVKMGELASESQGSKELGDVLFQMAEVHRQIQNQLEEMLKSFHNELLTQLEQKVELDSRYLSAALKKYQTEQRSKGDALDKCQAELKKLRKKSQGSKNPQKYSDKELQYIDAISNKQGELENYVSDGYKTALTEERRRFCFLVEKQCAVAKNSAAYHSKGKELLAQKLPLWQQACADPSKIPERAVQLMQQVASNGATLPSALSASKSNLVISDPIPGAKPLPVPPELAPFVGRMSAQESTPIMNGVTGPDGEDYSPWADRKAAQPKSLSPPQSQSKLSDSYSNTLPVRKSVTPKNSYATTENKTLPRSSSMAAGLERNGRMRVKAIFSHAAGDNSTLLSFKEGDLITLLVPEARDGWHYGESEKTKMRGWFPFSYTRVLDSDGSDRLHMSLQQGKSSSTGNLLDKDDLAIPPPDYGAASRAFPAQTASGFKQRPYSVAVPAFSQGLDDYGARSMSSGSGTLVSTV


Assays:
Conditions in all cases: both partners purified
14-3-3θ [1] = molecular target: T1, 14-3-3θ; test: ITC; peptide in the syringe (100 μM singly, 50 μM doubly phosphorylated) titrated into 10 μM 14-3-3θ in the cell; 20 °C; 20 mM HEPES pH 7.5, 150 mM NaCl, 1 mM MgCl2, 0.1 mM TCEP; single-site model
14-3-3θ [2] = molecular target: T1, 14-3-3θ; test: SEC-MALS; 14-3-3θ (4 mg/mL) pre-incubated 2 h at 20 °C with Site 2 (two peptides per dimer) or Sites 2,4 (one peptide per dimer); TSKgel SuperSW2000
[3] = molecular target: T2, IRSp53-FLAG (wild type), natively …; test: pull-down; 14-3-3θ-affinity column: MBP-14-3-3θ bound to amylose resin; FLAG-eluted IRSp53-FLAG loaded; eluted with 200 μM Sites 2,3 peptide
2xFLAG-Eps8 = molecular target: T3, 2xFLAG-Eps8 (human, UniProt Q12929 1-822); test: other fluorescence titration; intramolecular FRET sensor (fluorescein/rhodamine on C230 and C519 of IRSp53); Cdc42, Eps8 and/or 14-3-3θ titrated into the sensor, also back to back; 20 °C; 25 mM Tris-HCl pH 7.5, 150 mM NaCl, 1 mM MgCl2, 5% glycerol, 0.1 mM TCEP; observed Kd (Kobs) from the fits
T3 construct: Eps8, human, UniProt Q12929, full length; also called FLAG-tagged Eps8
T3 sequence (Q12929 whole entry): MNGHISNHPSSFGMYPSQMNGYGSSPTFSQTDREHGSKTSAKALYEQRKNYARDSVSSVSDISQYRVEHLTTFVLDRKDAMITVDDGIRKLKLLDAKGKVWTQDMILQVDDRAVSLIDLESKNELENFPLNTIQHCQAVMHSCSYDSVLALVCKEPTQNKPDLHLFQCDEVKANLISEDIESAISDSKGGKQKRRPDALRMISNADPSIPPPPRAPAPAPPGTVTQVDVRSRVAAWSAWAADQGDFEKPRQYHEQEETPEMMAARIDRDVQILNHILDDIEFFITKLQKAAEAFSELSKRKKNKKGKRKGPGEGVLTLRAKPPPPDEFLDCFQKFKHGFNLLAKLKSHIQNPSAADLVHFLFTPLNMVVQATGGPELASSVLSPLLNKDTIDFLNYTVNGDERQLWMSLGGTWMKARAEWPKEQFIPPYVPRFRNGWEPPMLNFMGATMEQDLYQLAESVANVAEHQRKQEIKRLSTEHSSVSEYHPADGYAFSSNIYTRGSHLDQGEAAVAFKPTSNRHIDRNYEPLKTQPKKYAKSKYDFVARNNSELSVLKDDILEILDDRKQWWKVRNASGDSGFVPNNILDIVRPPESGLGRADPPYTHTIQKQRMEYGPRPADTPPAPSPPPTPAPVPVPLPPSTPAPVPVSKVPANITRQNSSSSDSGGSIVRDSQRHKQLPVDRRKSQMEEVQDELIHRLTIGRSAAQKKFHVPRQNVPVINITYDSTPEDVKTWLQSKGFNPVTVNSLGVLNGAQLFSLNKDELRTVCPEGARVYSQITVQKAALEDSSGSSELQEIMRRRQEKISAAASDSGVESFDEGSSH

Binder | Kd (14-3-3θ [1]) | stoichiometry N (14-3-3θ [1]) | further results
Ac-QQGKSSSTGNLLD-NH2 (also: phosphoserine at S454, which serine of the chain is not given here) [Site 5 peptide (pS454)] | 12000 nM | ~1 peptide per 14-3-3θ subunit (two peptides per 14-3-3θ dimer) | 
AQPKSL[pS]PPQSQSKLSDSYSN[pT]LPVRKS [Sites 1,2 peptide (pS325/pT340)] |  | ~1 peptide per 14-3-3θ subunit | 
Ac-DSYSN[pT]LPVRKSVTPKNSYATTENK[pT]LPRSSS-NH2 (SMILES CC(=O)N[C@@H](CC(=O)O)C(=O)N[C@@H](CO)C(=O)N[C@@H](Cc1ccc(O)cc1)C(=O)N[C@@H](CO)C(=O)N[C@@H](CC(N)=O)C(=O)N[C@H](C(=O)N[C@@H](CC(C)C)C(=O)N1CCC[C@H]1C(=O)N[C@H](C(=O)N[C@@H](CCCNC(=N)N)C(=O)N[C@@H](CCCCN)C(=O)N[C@@H](CO)C(=O)N[C@H](C(=O)N[C@H](C(=O)N1CCC[C@H]1C(=O)N[C@@H](CCCCN)C(=O)N[C@@H](CC(N)=O)C(=O)N[C@@H](CO)C(=O)N[C@@H](Cc1ccc(O)cc1)C(=O)N[C@@H](C)C(=O)N[C@H](C(=O)N[C@H](C(=O)N[C@@H](CCC(=O)O)C(=O)N[C@@H](CC(N)=O)C(=O)N[C@@H](CCCCN)C(=O)N[C@H](C(=O)N[C@@H](CC(C)C)C(=O)N1CCC[C@H]1C(=O)N[C@@H](CCCNC(=N)N)C(=O)N[C@@H](CO)C(=O)N[C@@H](CO)C(=O)N[C@@H](CO)C(N)=O)[C@@H](C)OP(=O)(O)O)[C@@H](C)O)[C@@H](C)O)[C@@H](C)O)C(C)C)C(C)C)[C@@H](C)OP(=O)(O)O, IRSp53 stretch of 29-40 residues that holds T340 and T360; also called doubly-phosphorylated IRSp53 peptide Sites 2,3; source: synthetic peptide (Dr. Paul Leavis, Tufts University)) [Sites 2,3 peptide (pT340/pT360)] | 45 nM | ~0.5 peptide per 14-3-3θ subunit (one peptide per 14-3-3θ dimer) | 
Ac-DSYSN[pT]LPVRKSVTPKNSYATTENKTLPRSS[pS]MAAGLE-NH2 (SMILES CSCC[C@H](NC(=O)[C@H](COP(=O)(O)O)NC(=O)[C@H](CO)NC(=O)[C@H](CO)NC(=O)[C@H](CCCNC(=N)N)NC(=O)[C@@H]1CCCN1C(=O)[C@H](CC(C)C)NC(=O)[C@@H](NC(=O)[C@H](CCCCN)NC(=O)[C@H](CC(N)=O)NC(=O)[C@H](CCC(=O)O)NC(=O)[C@@H](NC(=O)[C@@H](NC(=O)[C@H](C)NC(=O)[C@H](Cc1ccc(O)cc1)NC(=O)[C@H](CO)NC(=O)[C@H](CC(N)=O)NC(=O)[C@H](CCCCN)NC(=O)[C@@H]1CCCN1C(=O)[C@@H](NC(=O)[C@@H](NC(=O)[C@H](CO)NC(=O)[C@H](CCCCN)NC(=O)[C@H](CCCNC(=N)N)NC(=O)[C@@H](NC(=O)[C@@H]1CCCN1C(=O)[C@H](CC(C)C)NC(=O)[C@@H](NC(=O)[C@H](CC(N)=O)NC(=O)[C@H](CO)NC(=O)[C@H](Cc1ccc(O)cc1)NC(=O)[C@H](CO)NC(=O)[C@H](CC(=O)O)NC(C)=O)[C@@H](C)OP(=O)(O)O)C(C)C)C(C)C)[C@@H](C)O)[C@@H](C)O)[C@@H](C)O)[C@@H](C)O)C(=O)N[C@@H](C)C(=O)N[C@@H](C)C(=O)NCC(=O)N[C@@H](CC(C)C)C(=O)N[C@@H](CCC(=O)O)C(N)=O, IRSp53 stretch of 29-40 residues that holds T340 and S366; source: synthetic peptide (Dr. Paul Leavis, Tufts University)) [Sites 2,4 peptide (pT340/pS366)] | 67 nM | ~0.5 peptide per 14-3-3θ subunit (one peptide per 14-3-3θ dimer) | stoichiometry N (14-3-3θ [2]): 0.5 peptide per 14-3-3θ subunit
MBP-14-3-3θ (natural protein, human, UniProt P27348 1-245, looked up, also called MBP-tagged 14-3-3θ; source: E. coli BL21(DE3), purified (amylose resin, SEC)) MEKTELIQKAKLAEQAERYDDMATCMKAVTEQGAELSNEERNLLSVAYKNVVGGRRSAWRVISSIEQKTDTSDKKLQLIKDYREKVESELRSICTTVLELLDKYLIANATNPESKVFYLKMKGDYFRYLAEVACGDDRKQTIDNSQGAYQEAFDISKKEMQPTHPIRLGLALNFSVFYYEILNNPELACTLAKTAFDEAIAELDTLNEDSYKDSTLIMQLLRDNLTLWTSDSAGEECDAAEGAEN |  |  | binding result [3]: binds
Ac-LSDSYSN[pT]LPVRKS-NH2 (SMILES CC(=O)N[C@@H](CC(C)C)C(=O)N[C@@H](CO)C(=O)N[C@@H](CC(=O)O)C(=O)N[C@@H](CO)C(=O)N[C@@H](Cc1ccc(O)cc1)C(=O)N[C@@H](CO)C(=O)N[C@@H](CC(N)=O)C(=O)N[C@H](C(=O)N[C@@H](CC(C)C)C(=O)N1CCC[C@H]1C(=O)N[C@H](C(=O)N[C@@H](CCCNC(=N)N)C(=O)N[C@@H](CCCCN)C(=O)N[C@@H](CO)C(N)=O)C(C)C)[C@@H](C)OP(=O)(O)O) [Site 2 peptide (pT340)] |  | ~1 peptide per 14-3-3θ subunit (two peptides per 14-3-3θ dimer) | stoichiometry N (14-3-3θ [2]): 1 peptide per 14-3-3θ subunit
pIRSp53FS (natural protein, human (from the printed UniProt entry), UniProt Q9UQB8-4 1-521, looked up, natively phosphorylated in HEK293T cells; fluorescein maleimide / rhodamine maleimide on C230 and C519, IRSp53 (BAIAP2), isoform-4, UniProt Q9UQB8-4, full length, S519C; Expressed and purified as m4; also called IRSp53 FRET sensor; phosphorylated IRSp53 (mutant S519C)) MSLSRSEEMHRLTENVYKTIMEQFNPSLRNFIAMGKNYEKALAGVTYAAKGYFDALVKMGELASESQGSKELGDVLFQMAEVHRQIQNQLEEMLKSFHNELLTQLEQKVELDSRYLSAALKKYQTEQRSKGDALDKCQAELKKLRKKSQGSKNPQKYSDKELQYIDAISNKQGELENYVSDGYKTALTEERRRFCFLVEKQCAVAKNSAAYHSKGKELLAQKLPLWQQACADPSKIPERAVQLMQQVASNGATLPSALSASKSNLVISDPIPGAKPLPVPPELAPFVGRMSAQESTPIMNGVTGPDGEDYSPWADRKAAQPKSLSPPQSQSKLSDSYSNTLPVRKSVTPKNSYATTENKTLPRSSSMAAGLERNGRMRVKAIFSHAAGDNSTLLSFKEGDLITLLVPEARDGWHYGESEKTKMRGWFPFSYTRVLDSDGSDRLHMSLQQGKSSSTGNLLDKDDLAIPPPDYGAASRAFPAQTASGFKQRPYSVAVPAFSQGLDDYGARSMSSGSGTLVCTV |  |  | Kd (2xFLAG-Eps8): 42 nM
Ac-ATTENK[pT]LPRSSS-NH2 (SMILES CC(=O)N[C@@H](C)C(=O)N[C@H](C(=O)N[C@H](C(=O)N[C@@H](CCC(=O)O)C(=O)N[C@@H](CC(N)=O)C(=O)N[C@@H](CCCCN)C(=O)N[C@H](C(=O)N[C@@H](CC(C)C)C(=O)N1CCC[C@H]1C(=O)N[C@@H](CCCNC(=N)N)C(=O)N[C@@H](CO)C(=O)N[C@@H](CO)C(=O)N[C@@H](CO)C(N)=O)[C@@H](C)OP(=O)(O)O)[C@@H](C)O)[C@@H](C)O) [Site 3 peptide (pT360)] |  | ~1 peptide per 14-3-3θ subunit (two peptides per 14-3-3θ dimer) | 
Ac-TLPRSS[pS]MAAGLEK-NH2 (SMILES CSCC[C@H](NC(=O)[C@H](COP(=O)(O)O)NC(=O)[C@H](CO)NC(=O)[C@H](CO)NC(=O)[C@H](CCCNC(=N)N)NC(=O)[C@@H]1CCCN1C(=O)[C@H](CC(C)C)NC(=O)[C@@H](NC(C)=O)[C@@H](C)O)C(=O)N[C@@H](C)C(=O)N[C@@H](C)C(=O)NCC(=O)N[C@@H](CC(C)C)C(=O)N[C@@H](CCC(=O)O)C(=O)N[C@@H](CCCCN)C(N)=O) [Site 4 peptide (pS366)] |  | ~1 peptide per 14-3-3θ subunit (two peptides per 14-3-3θ dimer) | 

From article PMC6351565, “Mechanism of IRSp53 inhibition by 14-3-3” (Nature Communications, 2019)
